Experimental data taken from patent US20250009896A1, “SUPR[…] BASED VIRAL […] CAPTURE FOR PREVENTION AND THERAPY OF VIRAL INFECTION” (The Johns Hopkins University, priority 2023, published 2025).

Tests used:
[1] = target: T1, Recombinant human angiotensin-converting enzyme 2 (ACE2) protein, carrier-free (R&D Systems) (human), Q9BYF1
[2] = target: T1, Recombinant human …; experiment: cell-based or functional assay
[3] = target: T1, Recombinant human …; remark: listed apart in the source
[4] = target: T1, Recombinant human …; experiment: calculated reference value for the zeta potential of the mixture

T1 sequence (Q9BYF1 18-740 limits assumed): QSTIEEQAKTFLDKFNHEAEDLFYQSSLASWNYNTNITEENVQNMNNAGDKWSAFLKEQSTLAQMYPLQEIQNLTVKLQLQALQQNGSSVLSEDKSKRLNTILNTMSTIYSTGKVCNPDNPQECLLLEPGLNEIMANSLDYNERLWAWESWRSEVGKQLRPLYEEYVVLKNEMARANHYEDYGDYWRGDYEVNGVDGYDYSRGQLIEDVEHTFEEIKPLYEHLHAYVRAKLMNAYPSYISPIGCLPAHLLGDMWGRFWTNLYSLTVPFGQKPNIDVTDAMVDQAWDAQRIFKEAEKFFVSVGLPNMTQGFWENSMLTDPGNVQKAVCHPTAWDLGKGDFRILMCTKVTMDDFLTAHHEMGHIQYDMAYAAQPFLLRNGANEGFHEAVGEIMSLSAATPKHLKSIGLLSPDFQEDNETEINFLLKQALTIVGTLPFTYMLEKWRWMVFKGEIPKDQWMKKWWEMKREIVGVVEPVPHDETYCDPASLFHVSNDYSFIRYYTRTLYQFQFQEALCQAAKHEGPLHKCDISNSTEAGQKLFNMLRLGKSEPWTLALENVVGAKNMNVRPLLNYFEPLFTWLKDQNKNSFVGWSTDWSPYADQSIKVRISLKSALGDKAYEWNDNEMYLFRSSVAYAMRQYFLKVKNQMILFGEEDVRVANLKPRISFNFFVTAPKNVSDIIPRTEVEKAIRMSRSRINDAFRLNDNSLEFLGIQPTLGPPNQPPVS

B1: ACE2-docking supramolecular filaments (20:1 molar ratio of Filler to Ligand), without ACE2 (peptide)
peptide 1: VVVGEE
peptide 2: VVVGKKGGGDYSHCSPLRYYPWWKCTYPDPEGGG
modifications: not checked
[1]
  zeta potential of the 20:1 filaments after addition of ACE2 (bar '20:1+ACE2'); the sheet prints -31.9 for '20:1' without ACE2 (** between the two) and -29.4 for 'Filler' alone: -36.7 mV
[2]
  ACE2 enzymatic inhibition at 0 min incubation: 83%
  inhibition of added ACE2 (initial velocity relative to free ACE2): 93%

B2: ACE2-binding Ligand peptide amphiphile (C12-VVVGKK-GG-OEG4-DX600) (peptide)
peptide: VVVGKKGGGDYSHCSPLRYYPWWKCTYPDPEGGG
modifications: not checked
[3]
  zeta potential of the mixture, measured: -25.1 mV
[4]
  intensity-averaged zeta potential calculated assuming no interaction: -17.6 mV
